In US20210221899A1 (published 2021):

T1: canine NGF (canine, UniProt Q29074 110-229 (pig entry), limits assumed)
T1 construct: The protein was secreted from CHO cells and purified; also called cNGF; canine β-NGF
T1 chain: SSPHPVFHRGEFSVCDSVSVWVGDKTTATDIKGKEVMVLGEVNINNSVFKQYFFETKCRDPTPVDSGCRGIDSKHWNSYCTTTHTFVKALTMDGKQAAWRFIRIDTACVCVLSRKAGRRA

T2: human NGF (human, UniProt P01138 122-241)
T2 construct: also called human Nerve Growth Factor; hN
T2 chain: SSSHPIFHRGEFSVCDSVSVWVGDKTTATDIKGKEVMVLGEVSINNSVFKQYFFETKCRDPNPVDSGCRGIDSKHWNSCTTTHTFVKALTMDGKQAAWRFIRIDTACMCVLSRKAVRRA

B1: ZTS-842 (antibody, V domains shown)
VH: EVQLVESGGDLVKPGGSLRLSCVASGFTFSTYGINWVRQAPGKGLQWVAYISSGGSSTYYADPVKGRFTISRDDAKNMLYLQMNSLRAEDTAIYYCAGSRYTYAYGGGYEFHFWGQGTLVTVSS
VL: QAVLNQPASVSGALGQKVTISCSGSTMDIDIFGVSWYQQLPGKAPKLLVDSDGDRPSGIPDRFSGSRSGNSGTLTITGLQAEDEADYHCQSGDSTLGALAIFGGGTHVTVL
notes: Canine mAb; also called 48L2; can48L2
B2: can48L2VL_T26A (antibody, V domains shown)
VH: EVQLVESGGDLVKPGGSLRLSCVASGFTFSTYGINWVRQAPGKGLQWVAYISSGGSSTYYADPVKGRFTISRDDAKNMLYLQMNSLRAEDTAIYYCAGSRYTYAYGGGYEFHFWGQGTLVTVSS
VL: QAVLNQPASVSGALGQKVTISCSGSAMDIDIFGVSWYQQLPGKAPKLLVDSDGDRPSGIPDRFSGSRSGNSGTLTITGLQAEDEADYHCQSGDSTLGALAIFGGGTHVTVL
notes: CDR scanning mutant of ZTS-842 (48L2)
B3: humanized mAb can48L2VH_HM855323.1 / can48L2VL_Z22192.1 (antibody, V domains shown)
VH: EVQLVESGGGLVKPGGSLRLSCAASGFTFSTYGINWVRQAPGKGLEWVSYISSGGSSTYYADSVKGRFTISRDNAKNSLYLQMNSLRAEDTAVYYCAGSRYTYAYGGGYEFHFWGQGTLVTVSS
VL: QSVVTQPPSVSGAPGQRVTISCTGSTMDIDIFGVSWYQQLPGTAPKLLIYGDGDRPSGVPDRFSGSKSGASASLAITGLQAEDEADYHCQSGDSTLGALAIFGGGTHVTVL
B4: ZTS-205 (antibody, V domains shown)
VH: DVQLVESGGDLVKPGGSLRLTCVASGFTFSTYGINWVRQAPGKGLQWVAYISSGGSSTYYADPVKGRFTISRDNAKNMLYLQMNNLKTEDTATYYCAGSRYTYAYGGGYEFHFWGQGTLVTVSS
VL: QAVLNQPSSVSGALGQRVTISCSGSTMDIDIFGVSWYQQIPGMAPKTIIDSDGDRPSGVPDRFSGSKSGSTGTLTITGLQAEDEADYYCQSGDSTLGALAIFGGGTHVTVLG
notes: Felinized 48L2; also called fel48L2 1.1; fel48L21.1
B5: humanized mAb can48L2VH_HM855336.1 / can48L2VL_Z22192.1_P8A (antibody, V domains shown)
VH: EVQLVESGGGLVQPGGSLRLSCAASGFTFSTYGMNWVRQAPGKGLEWVSYISSGGSSIYYADSVKGRFTISRDNAKNSLYLQMNSLRAEDTAVYYCAGSRYTYAYGGGYEFHFWGQGTLVTVSS
VL: QSVVTQPASVSGAPGQRVTISCTGSTMDIDIFGVSWYQQLPGTAPKLLIYGDGDRPSGVPDRFSGSKSGASASLAITGLQAEDEADYHCQSGDSTLGALAIFGGGTHVTVL
B6: humanized mAb can48L2VH_HM855336.1 / can48L2VL_Z22192.1 (antibody, V domains shown)
VH: EVQLVESGGGLVQPGGSLRLSCAASGFTFSTYGMNWVRQAPGKGLEWVSYISSGGSSIYYADSVKGRFTISRDNAKNSLYLQMNSLRAEDTAVYYCAGSRYTYAYGGGYEFHFWGQGTLVTVSS
VL: QSVVTQPPSVSGAPGQRVTISCTGSTMDIDIFGVSWYQQLPGTAPKLLIYGDGDRPSGVPDRFSGSKSGASASLAITGLQAEDEADYHCQSGDSTLGALAIFGGGTHVTVL
B7: humanized mAb can48L2VH_HM855336.1 / can48L2VL_Z22192.1_P14L (antibody, V domains shown)
VH: EVQLVESGGGLVQPGGSLRLSCAASGFTFSTYGMNWVRQAPGKGLEWVSYISSGGSSIYYADSVKGRFTISRDNAKNSLYLQMNSLRAEDTAVYYCAGSRYTYAYGGGYEFHFWGQGTLVTVSS
VL: QSVVTQPPSVSGALGQRVTISCTGSTMDIDIFGVSWYQQLPGTAPKLLIYGDGDRPSGVPDRFSGSKSGASASLAITGLQAEDEADYHCQSGDSTLGALAIFGGGTHVTVL
B8: humanized mAb can48L2VH_HM855323.1 / can48L2VL_Z22192.1_P14L (antibody, V domains shown)
VH: EVQLVESGGGLVKPGGSLRLSCAASGFTFSTYGINWVRQAPGKGLEWVSYISSGGSSTYYADSVKGRFTISRDNAKNSLYLQMNSLRAEDTAVYYCAGSRYTYAYGGGYEFHFWGQGTLVTVSS
VL: QSVVTQPPSVSGALGQRVTISCTGSTMDIDIFGVSWYQQLPGTAPKLLIYGDGDRPSGVPDRFSGSKSGASASLAITGLQAEDEADYHCQSGDSTLGALAIFGGGTHVTVL
B9: humanized mAb can48L2VH_HM855323.1 / can48L2VL_Z22192.1_P8A (antibody, V domains shown)
VH: EVQLVESGGGLVKPGGSLRLSCAASGFTFSTYGINWVRQAPGKGLEWVSYISSGGSSTYYADSVKGRFTISRDNAKNSLYLQMNSLRAEDTAVYYCAGSRYTYAYGGGYEFHFWGQGTLVTVSS
VL: QSVVTQPASVSGAPGQRVTISCTGSTMDIDIFGVSWYQQLPGTAPKLLIYGDGDRPSGVPDRFSGSKSGASASLAITGLQAEDEADYHCQSGDSTLGALAIFGGGTHVTVL
B10: ZTS-841 (antibody, V domains shown)
VH: EVQLVESGGDLVKPGGSLRLSCVASGFTFSSHGMHWVRQSPGKGLQWVAVINSGGSSTYYTDAVKGRFTISRDNAKNTVYLQMNSLRAEDTAMYYCAKESVGGWEQLVGPHFDYWGQGTLVIVSS
VL: QSVLTQPTSVSGSLGQRVTISCSGSTNNIGILGASWYQLFPGKAPKLLVYGNGNRPSGVPDRFSGADSGDSVTLTITGLQAEDEADYYCQSFDTTLGAHVFGGGTHLTVL
notes: Canine mAb; also called 9L12; can9L12
B11: humanized mAb can9L12VH_HM855939 / can9L12VL (antibody, V domains shown)
VH: QVQLVESGGGVVQPGGSLRLSCAASGFTFSSHGMHWVRQAPGKGLEWVSVINSGGSSTYYADSVKGRFTISRDNSKNTLYLQMNSLRAEDTAVYYCAKESVGGWEQLVGPHFDYWGQGTLVIVSS
VL: QSVLTQPTSVSGSLGQRVTISCSGSTNNIGILGASWYQLFPGKAPKLLVYGNGNRPSGVPDRFSGADSGDSVTLTITGLQAEDEADYYCQSFDTTLGAHVFGGGTHLTVL
B12: can9L12VH_D113A (antibody, V domains shown)
VH: EVQLVESGGDLVKPGGSLRLSCVASGFTFSSHGMHWVRQSPGKGLQWVAVINSGGSSTYYTDAVKGRFTISRDNAKNTVYLQMNSLRAEDTAMYYCAKESVGGWEQLVGPHFAYWGQGTLVIVSS
VL: QSVLTQPTSVSGSLGQRVTISCSGSTNNIGILGASWYQLFPGKAPKLLVYGNGNRPSGVPDRFSGADSGDSVTLTITGLQAEDEADYYCQSFDTTLGAHVFGGGTHLTVL
B13: humanized mAb can9L12VH_X92218 / can9L12VL (antibody, V domains shown)
VH: EVQLVESGGGLVQPGGSLRLSCAASGFTFSSHGMSWVRQAPGKGLEWVSVINSGGSSTYYADSVKGRFTISRDNSKNTLYLQMNSLRAEDTAVYYCAKESVGGWEQLVGPHFDYWGQGTLVIVSS
VL: QSVLTQPTSVSGSLGQRVTISCSGSTNNIGILGASWYQLFPGKAPKLLVYGNGNRPSGVPDRFSGADSGDSVTLTITGLQAEDEADYYCQSFDTTLGAHVFGGGTHLTVL
B14: humanized mAb can9L12VH / can9L12VL_M94116_65698 (antibody, V domains shown)
VH: EVQLVESGGDLVKPGGSLRLSCVASGFTFSSHGMHWVRQSPGKGLQWVAVINSGGSSTYYTDAVKGRFTISRDNAKNTVYLQMNSLRAEDTAMYYCAKESVGGWEQLVGPHFDYWGQGTLVIVSS
VL: QSVLTQPTSVSGAPGQRVTISCTGSTNNIGILGVHWYQQLPGTAPKLLIYGNGNRPSGVPDRFSGADSGDSVSLAITGLQAEDEADYYCQSFDTTLGAHVFGGGTHLTVL

Assays:
canine NGF [1] = target: T1, canine NGF; assay: SPR (Biacore), NGF amine-coupled on chip, antibody injected
Method: (§1) Antibody binding affinities of the antibodies against canine NGF were determined by surface plasmon resonance (SPR) on a Biacore system (Biocore Life Sciences (GE Healthcare), Uppsala, Sweden). Immobilization of canine and rat NGF were obtained by amine coupling […] NGF using N-hydroxysuccinimide (NHS)/1-Ethyl-3-(3-dimethylaminopropyl) carbodiimide (EDC) chemistry. Chips were quenched with ethanolamine and the affinity with which all candidate mAbs bound to the immobilized NGF was evaluated. Various concentrations of canine and felinized anti-NGF antibodies were injected over the NGF surfaces while the association of the antibody to the antigen and the dissociation of the formed complex were monitored in real time. Kinetic analysis was performed to obtain the equilibrium dissociation constant (KD).

rat NGF [2] = target: T3, rat NGF (rat, UniProt P25427 122-241); assay: as above
T3 construct: also called rN
T3 sequence (P25427 122-241 limits assumed): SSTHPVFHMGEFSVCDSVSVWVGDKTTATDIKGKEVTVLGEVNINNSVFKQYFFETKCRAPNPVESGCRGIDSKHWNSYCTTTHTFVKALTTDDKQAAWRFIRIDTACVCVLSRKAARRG
Method: as §1

canine NGF [3] = target: T1, canine NGF; assay: SPR (Biacore T200), 100 nM mAb on NGF chip, similarity to parent mAb
Procedure, shortened: (§2)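 CDR alanine-scan mutants of the anti-NGF mAb were each run at 100 nM over an NGF-coated Biacore T200 chip. A threshold band was set from the mean response units of four parent-mAb replicates ±3 SD, covering both on- and off-rate phases. The score is the percentage of each mutant's data points falling inside that band.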

human NGF [4] = target: T2, human NGF; assay: as above
Procedure, shortened: as §2

rat NGF [5] = target: T3, rat NGF; assay: as above
Procedure, shortened: as §2

human NGF [6] = target: T2, human NGF; assay: SPR (Biacore), human NGF amine-coupled on chip, antibody injected
Method: Antibody binding affinities of the antibodies against human NGF (SEQ ID NO.66) were determined by surface plasmon resonance (SPR). Human NGF was immobilized on the surface of a BIACORE chip by direct amine coupling. Various concentrations of the described humanized anti-NGF antibodies were injected over the human NGF surfaces while the association of the antibody to the antigen and the dissociation of the formed complex were monitored in real time. Kinetic analysis was performed to obtain the equilibrium dissociation constant (KD).

Row | Binder | Kd (human NGF [6]) [nM] | koff (human NGF [6]) [s⁻¹] | kon (human NGF [6]) [M⁻¹ s⁻¹] | also measured
1 | B1 |  |  |  | Kd (canine NGF [1]): 0.0217 nM; koff (canine NGF [1]): 2.27e-05 s⁻¹; kon (canine NGF [1]): 703000 M⁻¹ s⁻¹; Kd (rat NGF [2]): 0.00325 nM; koff (rat NGF [2]): 1.42e-06 s⁻¹; kon (rat NGF [2]): 573000 M⁻¹ s⁻¹
2 | B2 |  |  |  | Percent Similarity Score (KD on cN) (canine NGF [3]): 97.3%; Percent Similarity Score (KD on hN) (human NGF [4]): 99.8%; Percent Similarity Score (KD on rN) (rat NGF [5]): 98%
3 | B3 | 1.54 | 0.000256 | 167000 | 
4 | B4 |  |  |  | Kd (canine NGF [1]): 0.111 nM; koff (canine NGF [1]): 8.93e-05 s⁻¹; kon (canine NGF [1]): 426000 M⁻¹ s⁻¹; Kd (rat NGF [2]): 0.277 nM; koff (rat NGF [2]): 0.00029 s⁻¹; kon (rat NGF [2]): 672000 M⁻¹ s⁻¹
5 | B5 | 0.841 | 0.000212 | 252000 | 
6 | B6 | 1.25 | 0.000337 | 269000 | 
7 | B7 | 1.49 | 0.000422 | 283000 | 
8 | B8 | 0.00102 | 1.46e-07 | 144000 | 
9 | B9 | 1.54 | 0.000315 | 205000 | 
10 | B10 |  |  |  | Kd (canine NGF [1]): 0.0506 nM; koff (canine NGF [1]): 2.36e-05 s⁻¹; kon (canine NGF [1]): 527000 M⁻¹ s⁻¹; Kd (rat NGF [2]): 0.108 nM; koff (rat NGF [2]): 4.61e-05 s⁻¹; kon (rat NGF [2]): 587000 M⁻¹ s⁻¹
11 | B11 | 4.12 | 0.00161 | 390000 | 
12 | B12 |  |  |  | Percent Similarity Score (KD on cN) (canine NGF [3]): 100%; Percent Similarity Score (KD on hN) (human NGF [4]): 100%; Percent Similarity Score (KD on rN) (rat NGF [5]): 100%
13 | B13 | 0.126 | 3.78e-05 | 301000 | 
14 | B14 | 9.19 | 0.00197 | 214000 | 
